Measurements published in patent US20250082573A1, “COMPOSITIONS AND METHODS FOR DELIVERY OF OCULAR THERAPEUTICS” (The Board of Trustees of the Leland Stanford Junior …, priority 2023, published 2025).

Legend:
[1] = VH mimic depot formation and model cargo release assay; format: physicochemical; conditions: cargo in PNP hydrogel vs PBS bolus, 50 μL into VH mimic; fluorescein 0.25 mg mL^−1, albumin-FITC 10 mg mL^−1
Experimental: This example describes PNP-2-10 hydrogel depot formation and model cargo release in a VH mimic. The PNP-2-10 hydrogel was prepared as described in Example 1. The present technology is directed to ITV administration of PNP hydrogels in the sensitive environment of the eye. To better visualize and understand how the PNP hydrogels would behave in the VH, depot formation and model cargo release were analyzed in a VH mimic composed of agar and hyaluronic acid (HA). […]
To prepare the VH mimic release assay, 50 μL of PNP hydrogel or PBS loaded with either 0.25 mg mL^−1 fluorescein or 10 mg mL^−1 albumin-FITC (MW˜66 kDa, mol FITC:mol albumin=14) was injected through a 30-gauge needle into a cuvette containing a VH mimic. […] Dye release was quantified using ImageJ software. Images were separated into red, blue, and green channels and the intensity in the green channel within a region inside the hydrogel depot or initial PBS injection site was measured for each time point, denoted Itn. […] The fraction of dye remaining in the gel depot at the final time point was determined by comparing the change in background intensity from times t0 to tplateau for PBS and gel samples:
The percent of dye retained in the gel or PBS injection site at each time point tn was determined by normalizing the intensity as
where tf is the final time point measured and C is a constant defined by […]

[2] = following IV administration; cited from earlier work

| Molecule | increase of effective half-life of retention compared to the control PBS bolus [1] | elimination half-life [2] [min] |
| --- | --- | --- |
| albumin-FITC: a model protein, MW˜66 kDa, mol FITC:mol albumin=14 | over 3.7 fold |  |
| CCNC(=O)CCC/C=C\C[C@@H]1[C@@H](/C=C/[C@@H](O)CCc2ccccc2)[C@H](O)C[C@@H]1O [bimatoprost] |  | 45 |
